The target of assay [1] is T1, vWA (von Willebrand factor type A) domain of Arabidopsis thaliana RPN10 (Arabidopsis thaliana, UniProt P55034 1-193).
T1 construct: In Y2H it was a fusion to a GAL4 domain; also called AtvWA; AtRPN10 vWA domain
T1 sequence: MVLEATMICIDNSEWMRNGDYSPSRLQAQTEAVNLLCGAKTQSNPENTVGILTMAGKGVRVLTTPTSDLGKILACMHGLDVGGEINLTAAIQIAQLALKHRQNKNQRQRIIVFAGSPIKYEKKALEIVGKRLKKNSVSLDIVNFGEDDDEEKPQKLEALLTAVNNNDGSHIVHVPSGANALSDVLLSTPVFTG
As to the kind of experiment: His-tag pull-down (iMAC), His-sumo-tagged vWA as bait.

In assay [2] the target is T2, UIM domain (C-terminal half with ubiquitin-interacting motifs) of Arabidopsis thaliana RPN10 (Arabidopsis thaliana, UniProt P55034 194-386).
T2 construct: domain: UIM domain
T2 sequence: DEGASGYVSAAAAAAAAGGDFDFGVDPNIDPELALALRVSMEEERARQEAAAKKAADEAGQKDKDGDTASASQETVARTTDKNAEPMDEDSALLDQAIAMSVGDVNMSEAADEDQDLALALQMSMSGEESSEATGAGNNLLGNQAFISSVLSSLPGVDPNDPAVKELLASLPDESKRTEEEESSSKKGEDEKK
As to the kind of experiment: yeast two-hybrid.

B1: ZnF (zinc-finger) domain of Arabidopsis thaliana SPL5 (other)
chain: SRLCQVDRCTVNLTEAKQYYRRHRVCEVHAKASAATVAGVRQRFCQQCSRFHELPEFDEAKRSCRRRLAGHNERRRKI
notes: domain: ZnF domain; Recombinant protein from E. coli; also called ZnF domain of AtSPL5
In the case of B1, the binding result in assay [1] was “no binding”.

B2: SAP05 (effector protein from AY-WB phytoplasma) (other)
chain: APNEEFVGDMRIVNVNLSNIDILKKHETFKKYFDFTLTGPRYNGNIAEFAMIWKIKNPPLNLLGVFFDDGTRDDEDDKYILEELKQIGNGAKNMYIFWQYEQK
notes: also called SAP05_AYWB; His-tagged SAP05
Take B2: the binding result in assay [2] is on record as “no binding”.

The record behind these values is patent publication US20240051999A1 (JOHN INNES CENTRE, published 2024).
